Assay: yeast display, Sf9 membrane polyspecificity reagent, FACS + sequencing; frameworks hold sequencing errors
Outline: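 A nanobody's polyreactivity label depends on the gate it was sorted from. Yeast display cells were stained with 10% biotinylated, detergent-solubilized Sf9 membrane reagent for 1 hour at 4 °C, enriched on streptavidin microbeads and sorted by FACS. The low and high (top ~1%) gates were set on anti-HA fluorescence for expression and streptavidin fluorescence for reagent binding.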

Sequence	polyreactivity (PSR sort gate)
QVQLVESGGGLVQAGGSLRLSCAASGRTFYKNAMGWYRQAPGKEREFVASISVSGGRTYYADSVKGRFTISRDNAKNTVYLQMNSLKPEDTAVYYCNARASPLSQRDYWGQGTQVTVSS	low polyreactivity
QVQLVESGVGLVQAGGRLLLSCAASRSIFTRYTMGWYSQAPGKEWELVATISSRGDGTFYADSVKGRFTISRDNAKNTFYLQMNSLKPEDTAVYYCAARYRRVHSGYGYWGQVTQVTVSS	high polyreactivity
QVQLVESGGGLVQAGGSLRLSCAASGRIFYYYAMGWYRQAPRKERELVASINSGGSTYYADSVKGRFTISRDNAKNTVYLQMNSMKPEDTAVYYCAAGFQLVKGYLSGRAAYYYWGQGTQVTVSS	high polyreactivity
QVQLVESGGGLVQAGGSLRFSCAASGITFRRYAMGWYRQAPGKERELVASISRGGSTYYADSVKGRFTISRDNAKNTVYLQMNSLKPEDTAVYYCAADVAWRYDYWGQGTQVNVSS	high polyreactivity
QVQLVESGGGLVQAGGSLRLSCAASGSIFPYYALGRYRQAPGKERELVADITSSGGSTYYADSVKGRFTISRDNAKNTVYLQMNSLKPEDTAVYYCAALYWFYVYPFTEYDYWGQGTQVTVSS	low polyreactivity
QVQLVESGGGLVQAGGSLRLSCAASGSTFVDYDMGWYRQAPGKERELVAAITYSGARTYYADSVKGRFTISRDNAKNTVYLKMNSLKPEDTAVYYCNADQRSASDQLEFDYWGQGTQVTVSS	low polyreactivity
QVQLVESGGGLVQAGGSLRLSCAASGFILDNYAMGWYRQAPGKERELVAAISGSGGSTYYADSVKGRFTISRDNAKNTVYLQMNSLKPEDTAVYYCAAYSIHYGYDAYDYWGQGTQVTVSS	high polyreactivity
QVQLVESGGGLVQAGGSLRLSCAASGLTFSDNAMGWYRQAPGKEREFVAAITRNGGSTRYADSVKGRFTISRDNAKNTVYLQMNSLKPEDTAVYYCAAVPVGYDSDWGYYYWGQGTQVTVSS	low polyreactivity
QVQLVESGGGLVQAGGSLRLSCAPTGSIFSVYAMGWYRHAPGKESELVATISSSGSTNYADSVKGRFTISRDNAKNTVYLQMNSLKPEDTAVYYCNVVGEYTQSDYSGYDYWGQGTQVTLSS	low polyreactivity
QVQLVESGGGLVQAGGSLRLSCAASGRTFRTYDMGWYRQEPGKERELVAAITSRAGSTYYADSVKGRFTISRDNAKNTVFLQMNRLKPEDTAVYYCAKQYYYGWYWGEDYWGQGSQVTVSS	low polyreactivity
QVQLVESGGGLVQAGGSLRLSCAASGRIFNVYAMGWYRQAPGKERELVAAITYSGGSTYYADSVKVRITISRDNAKNSVYLQMIFLKPEDTAVYYCNARSSKRSSRGYDYWGQGTQVTVSS	high polyreactivity
QVQLVESGGGLVQAGGSLRLSCAASGFIFATNAMGWYRQAPGKEREFVAAITSGGSTYYADSVKGRFTISRDNAKNTVYLQMNSLKPEDTAVYYCNARTYSRVTRQTYRYRPYDYWGQGTQVTVSS	high polyreactivity
QVQLVESGGGLVQAGGSLRLSCAASGSTLWGYVMGWYRQAPGKERELVAVISKSGGSTYYADSVKGRFTISRDNAKNTVYLQMNSLKPEDTAVYYCATRGPYRSDWGQGTQVTVSS	high polyreactivity
QVQLVESGGGLVQAGGSLRLSCAASGSTFTTYAMGWYRQATGKERELVASITWRGGSTYADSVKGRFTISRDNAKNTVYLEMNSLKPEDTAVYYCAAATRASAQFPRQRYYYWGQGTQVTVSS	high polyreactivity
QVQLVESGGGLVQAGGSLRLSCAASGFTFAKYAMGWYRQAPGKERELVAAISSSGGRTYYADSVQGRFTISRDNAKNTVYLQMNSLKPEDTAVYYCAADFSGPFDYWGQGTQVTVSS	high polyreactivity
QVQLVESGGGLVQAGGSLRLSCAASGGTFPYNAMGWYRQAPGKERELVAVITSGDGTYYADSVKGRFTISRDNAKNTVYLQMNSLKPEDTAVYYCAADYVVWFSFVYVVEYDYWGQGTQVTVSS	low polyreactivity
QVQLVESGGGLVQAGGSLRLSCAGSGFTLDGYVMGWYRQAPGQEREFVAAIRSSGGSTRYADSVKGRFTISRDNAKNTVYLQMNSLKPEDTALYYSAAVAYYWGYEQWYDYWGQGTQVTVSS	high polyreactivity
QVHLVESGGGLFQAGGSLRISCSASGSIFARNAMGWYRQAPGKERELVAAISRSGGSTYYADSVKGRFTISRDNAMMTVSFQMNSLKPEDTAVYYCAAVRRRTVGYNYWGQGTQVTVSS	high polyreactivity
QVQLVESGGGLVQAGGSLRLSCAASGSTFYGYAMGWYRQAPGKERELVAAITVRGGSTYYADSVKGRFTISRDNAKNTVYLQMNSLKPEDTAVYYCAKGRLRRTYYRNKFSFDYWGQGTQVTVSS	high polyreactivity
QVQLVESGGGLVQAGGSLRLSCAASGSTFNHYAMGWYRQAPGKERELVAAITKSGGSTYADSVKGRFTISRDNAKNTVYLQMNSLKPEDTAVYYCAAGRRKYGTKGRGDYWGQGTQVTVSS	low polyreactivity
QVQLVESGGGLVQAGGSLRLSCAASGFTFKTNARGWYRQAPVTERELVAAITGSGSSTYYADSVKGRFTISRDNAKNTVYLQMNSLKPEDTAVYYCAASRVYKYYWGQGTEVTVSS	high polyreactivity
QVQLVESGGGKVQAGGSLSLSCAASGSTFVVNAMGWYRQAPGKERELVAAIDGSDGSTYYADSEKGRFTISRDNAKNTVYLQMNSLKPEDTAVYYCAAEVLGRPDVENDYWGQGTKVTVSS	low polyreactivity
QVQLVESGGGLVQAGGSLRLSCAASGSTFRYYAMGWYRHAPGKDRELVAAISGSGGRTYYADSVKGRFTISRDNAKNTVYLQMNSLKPEDTAVYYCNTRGRRTDYDYWGQGTQVTVSS	high polyreactivity
QVQLVESGGGLVQAGGSLRLSCAASASILGSNAMGWYSQAPGKEREFVAAITWTGGSTYYADSVKGRFTISRDNAKNTVYLQMNSLKPEDSAVYYWAKDVKYVKMDDWGQGTQVTVSS	low polyreactivity
QVQLVESGGGLDQAGGCLRLSCAASGRIFKYNAMGWYRQAPGTERELVAAISWNGDSTYYADSVKGRFTISRDIAKYTVYLQMNRLKPEDTAVYYCAVTGDYDMEYWGQGTQVTVSS	low polyreactivity
QVQLVESGGGLVQAGGSLRLSCAASGRIFGFYALGWYRQAAGKEWELVAAISQSRGSTYYADSVKGRFTISRDTANNTVYLQMNSLKPEDTAVYYCAKGYKYGKNIYYYWGQGTQVTVSS	high polyreactivity
QVQLVESAGGLVQAAGSLRLSCDASGRIFWYNAMGWYRQEPGKERELVAAISSGGSTSYADSVKGRFTISRDNAKNTVYLQMNSLKPEDTAVYYCDKDDERKQGQYPPYDSWGQGTQVTVSS	low polyreactivity
QVQLVESGGGLVQAGGSLRLSCAASGITFEPNDMGWYRQAPGKERELVAAISWSGGDTYYADSVKGRFTISRDNAKNTVYLQMNSLKPEDTAVYYCAAESWVAYEYWGQGTQVTVSS	low polyreactivity
QVQLVESGGGLVQAGGSLRLSCAASGFTFRSNAMGWYRQAPGKERELVAAISYSGDSTYYADSVKGRFTISRDTAKNTVYLQMNSLKPEDTAVYYCAADGYDQWGRVGVYLIWTSYDYWGQGTQVTVSS	high polyreactivity
QVQLVESGGGLVQAGGSLRLSCAASGRTLPINAMGWYIEAPGKERELVAAISTSGTRTYYADSVKGRFTISRDNAKNTVYLQMNSLKPEDTAVYYCNKDYWKVRSYDYCGQGTQVTVSS	low polyreactivity

— the nanobody polyreactivity screen of Harvey et al. (2022)
